1 molecule from patent US20230052142A1 (NORDIC BIOSCIENCE A S, published 2023) can be followed below.

For this assay, the target named is T1, monoclonal antibody clone NBH134 #102-3GF.
T1 construct: also called TUM antibody; HRP labeled monoclonal antibody
As to the kind of experiment: TUM competitive ELISA: the standard peptide in solution competes with plate-bound …-K-Biotin for the HRP-labelled antibody. How it is done:
Plates were washed five times in washing buffer (20 mM TRIS, 50 mM NaCl, pH 7.2). Subsequently, 20 μL of standard peptide or sample were added to appropriate wells, followed by 100 μL of 7 ng/mL horseradish peroxidase (HRP) labeled monoclonal antibody solution. The plates were incubated for 1 hour at 20° C. with shaking, and subsequently washed in washing buffer. Finally, 100 μL 3,3′,5,5-tetramethylbenzinidine (TMB) (Kem-En-Tec cat. 4380H) was added, and incubated for 15 min at 20° C. To stop the enzyme reaction of TMB, 100 μL of stopping solution (1% H₂SO₄) was added. The plate was analyzed by an ELISA reader at 450 nm with 650 nm as reference (Molecular Devices, VersaMax, CA, USA). A standard curve was performed by serial dilution of the standard peptide and plotted using a 4-parametric mathematical fit model. Standard concentrations were 0, 0.3125, 0.625, 1.25, 2.5, 5, 10, and 20 ng/mL. Each plate included five kit controls to monitor inter-assay variation. All samples were measured within the range of the assay, and all samples below lower limit of measurement range (LLMR) were reported as the value of LLMR.

B1: standard peptide PGLKGKRGDS (peptide)
peptide: PGLKGKRGDS
notes: Synthetic peptide bought from Genscript; also called calibrator peptide; calibration peptide
For orientation: IC50 means the concentration that inhibits the measured activity by half. The low end stands for inhibition by little substance, the high end for a need for much substance. B1 returned an IC50 of 1.6 ng/mL.
